The labels stand for the following.
B1: E53C (protein)
chain: MLPAPKNLVVSEVTEDSARLSWDDPWAFYESFLIQYQESEKVGEAIVLTVPGSCRSYDLTGLKPGTEYTVSIYGVHNVYKDTNMRGLPLSAIFTT
modifications: EGFR binding FN3 domain
B2: N6C (protein)
chain: LPAPKCLVVSEVTEDSARLSWDDPWAFYESFLIQYQESEKVGEAIVLTVPGSERSYDLTGLKPGTEYTVSIYGVHNVYKDTNMRGLPLSAIFTT
B3: T93C (protein)
chain 1: B1 chain with C54E, T94C
chain 2: B2 chain with C6N, T93C
modifications: EGFR binding FN3 domain; EGFR-binding FN3 domain
B4: S16C (protein)
chain 1: B1 chain with S17C, C54E
chain 2: B2 chain with C6N, S16C
modifications: EGFR binding FN3 domain; EGFR-binding FN3 domain
B5: S20C (protein)
chain 1: B1 chain with S21C, C54E
chain 2: B2 chain with C6N, S20C
modifications: EGFR binding FN3 domain; EGFR-binding FN3 domain
B6: V8C (protein)
chain 1: B1 chain with V9C, C54E
chain 2: B2 chain with C6N, V8C
modifications: EGFR binding FN3 domain; EGFR-binding FN3 domain
B7: S38C (protein)
chain 1: B1 chain with S39C, C54E
chain 2: B2 chain with C6N, S38C
modifications: EGFR binding FN3 domain; EGFR-binding FN3 domain
B8: S30C (protein)
chain 1: B1 chain with S31C, C54E
chain 2: B2 chain with C6N, S30C
modifications: EGFR binding FN3 domain; EGFR-binding FN3 domain
B9: S10C (protein)
chain 1: B1 chain with S11C, C54E
chain 2: B2 chain with C6N, S10C
modifications: EGFR binding FN3 domain; EGFR-binding FN3 domain
B10: V41C (protein)
chain 1: B1 chain with V42C, C54E
chain 2: B2 chain with C6N, V41C
modifications: EGFR binding FN3 domain; EGFR-binding FN3 domain
B11: P114AR7P92-G8: c-Met-binding FN3 domain, SEQ ID NO: 36 (protein)
chain: LPAPKNLVVSRVTEDSARLSWTAPDAAFDSFVIRYFEFLGSGEAIVLTVPGSERSYDLTGLKPGTEYVVQILGVKGGYISIPLSAIFTT
modifications: c-Met binding FN3 domain
B12: P114AR7P94-A3: c-Met-binding FN3 domain, SEQ ID NO: 41 (protein)
chain: B11 chain with V32W, Q70N, L72M, Y78K, I81P
modifications: c-Met binding FN3 domain
B13: P114AR7P94-E5: c-Met-binding FN3 domain, SEQ ID NO: 42 (protein)
chain: B11 chain with V32W, V68A, Q70N, L72M, Y78R, I79V, I81V
modifications: c-Met binding FN3 domain
B14: P114AR5P74-A5: c-Met-binding FN3 domain, SEQ ID NO: 32 (protein)
chain: B11 chain with V32W, F36D, F38V, L39V, G40V, S41G, V68Y, Q70N, Y78S, I81V
modifications: c-Met binding FN3 domain
B15: P114AR7P95-G7: c-Met-binding FN3 domain, SEQ ID NO: 48 (protein)
chain: B11 chain with V32W, F38L, G40S, S41T, Q70N, L72M, Y78S, I81P
modifications: c-Met binding FN3 domain
B16: P114AR7P93-H9: c-Met-binding FN3 domain, SEQ ID NO: 40 (protein)
chain: B11 chain with V32W, L72I, Y78H, I81L
modifications: c-Met binding FN3 domain
B17: P114AR7P92-H5: c-Met-binding FN3 domain, SEQ ID NO: 37 (protein)
chain: B11 chain with V32W, F36L, G40L, S41G, L72M, Y78T, I79V, I81P
modifications: c-Met binding FN3 domain
B18: P114AR7P95-H8: c-Met-binding FN3 domain, SEQ ID NO: 49 (protein)
chain: B11 chain with V32W, L39V, G40S, S41K, Q70N, L72M, Y78S, I81P
modifications: c-Met binding FN3 domain
B19: P114AR7P93-G8: c-Met-binding FN3 domain, SEQ ID NO: 39 (protein)
chain: B11 chain with V32W, G60D, V68G, Q70T, L72N, Y78R, I79V, I81T
modifications: c-Met binding FN3 domain
B20: P114AR7P95-D4: c-Met-binding FN3 domain, SEQ ID NO: 45 (protein)
chain: B11 chain with V32W
modifications: c-Met binding FN3 domain
B21: P114AR7P95-F10: c-Met-binding FN3 domain, SEQ ID NO: 47 (protein)
chain: B11 chain with V32W, L39T, G40T, S41A, Q70N, L72M, Y78S, I81P
modifications: c-Met binding FN3 domain
B22: P114AR7P92-F6: c-Met-binding FN3 domain, SEQ ID NO: 35 (protein)
chain: B11 chain with V32W, Q70N, Y78G, I79L, I81V
modifications: c-Met binding FN3 domain

Residue numbers refer to the chain shown, from its start. Names and notes keep the numbering of the source.

The results in this text go back to patent US10662235B2, “Cysteine engineered fibronectin type III domain binding molecules” (Janssen Biotech, Inc., priority 2016, dated 2020).

In general, IC50 refers to the concentration that inhibits the measured activity by half.

The test system of the first series is H1573 cells. The experiment in a line: Cytotoxicity assay of cytotoxin conjugates in H1573 cells. The class given is cell-based, human. The note with it: MMAF conjugates. The procedure: Cell killing was assessed by measuring viability of the EGFR-overexpressing human tumor cell line H1573 following exposure to the cysteine variant-cytotoxin conjugates. […] Cells were allowed to attach overnight at 37° C. in a humidified 5% CO2 atmosphere. Medium was aspirated from 96-well plate and cells were treated with 50 uL of fresh media and 50 uL of 2× inhibitor made up in fresh media. Cell viability was determined by an endpoint assay with Cell TiterGlo (Promega) at 70 hours. IC50 values were determined by fitting data to the equation for a sigmoidal dose response with variable slope using GraphPad Prism 5 (GraphPad Software).
Conjugates consisting of ECB147 cysteine variants, 83v2-cys, or Tencon-cys linked to a cytotoxic tubulin inhibitor from the auristatin family (FIG. 2) were tested for target-dependent cytotoxicity in cancer cells. The inhibitor was linked to the cysteine-containing protein via a non-cleavable PEG4 linker or an enzyme-cleavable valine-citrulline or valine-lysine linker.
As for B1, the “IC50 relative to parent conjugate” value is listed as “over two times more potent than the parent”.

Turning to B2, the “IC50 relative to parent conjugate” value is on record as “over two times more potent than the parent”.

Regarding B3, the “IC50 relative to parent conjugate” value is listed as “over two times more potent than the parent”.

The same series, now with this note: MMAF conjugates, Cell TiterGlo at 70 hours, read-out: IC50 (cell killing).
As for B2, the half-inhibitory concentration (IC50) stood at 0.16 nM.

Turning to B4, the IC50 stood at 0.75 nM.

Turning to B5, the IC50 is 0.36 nM.

For B3, the IC50 was determined as 0.2 nM.

On to B6, for which the IC50 was found to be 0.35 nM.

On to B7, for which the IC50 was 0.76 nM.

Take B8: the IC50 worked out at 0.78 nM.

B9: the IC50 stood at 0.43 nM.

For B10, the IC50 worked out at 1.13 nM.

System in another series: not listed separately
Briefly: Thermal stability by differential scanning calorimetry. The class given is physicochemical. The settings on record: c-Met-binding FN3 domains, DSC in PBS. The procedure: The thermal stability of cysteine-NEM conjugates was assessed by differential scanning calorimetry (DSC). The only the conjugates tested were those determined to express at high levels, conjugate efficiently, and retain EGFR binding. Additionally, cysteine variants within the BC and FG loops were excluded. Stability data was generated by heating a 400 μL aliquot of the variant from 25° C. to 100° C. at a scan rate of 1° C. per minute in a VP-DSC instrument (MicroCal). A second identical scan was completed on the sample in order to assess the reversibility of thermal folding/unfolding. Data was fitted to a 2-state unfolding model in order to calculate the melting temperature (Table 10).
Thermal Stability of c-Met-Binding FN3 Domains Differential scanning calorimetry in PBS was used to assess the stability of each FN3 domain.
Turning to B11, the “Thermal Stability (Tm, C.)” value is 90.9 C.

For the molecule B12, the “Thermal Stability (Tm, C.)” value was found to be 86.2 C.

Consider B13, for which the “Thermal Stability (Tm, C.)” value is 80 C.

On to B14, for which the “Thermal Stability (Tm, C.)” value turned out to be 74.1 C.

B15: the “Thermal Stability (Tm, C.)” value is 87.2 C.

With B16, the “Thermal Stability (Tm, C.)” value worked out at 88.2 C.

For the molecule B17, the “Thermal Stability (Tm, C.)” value turned out to be 87 C.

With B18, the “Thermal Stability (Tm, C.)” value came out at 83 C.

In the case of B19, the “Thermal Stability (Tm, C.)” value was 76.8 C.

B20: the “Thermal Stability (Tm, C.)” value stood at 85.3 C.

With B21, the “Thermal Stability (Tm, C.)” value is 85.2 C.

As for B22, the “Thermal Stability (Tm, C.)” value was 76.8 C.

The same series, now with this note: cysteine-NEM conjugates, DSC 25-100° C., 1° C. per minute.
For the molecule B2, the “First Scan Tm” value is 71 °C.

On to B4, for which the “First Scan Tm” value turned out to be 68 °C.

On to B5, for which the “First Scan Tm” value is 70 °C.

As for B3, the “First Scan Tm” value worked out at 69 °C.

With B6, the “First Scan Tm” value stood at 69 °C.

On to B7, for which the “First Scan Tm” value amounted to 65 °C.

In the case of B8, the “First Scan Tm” value amounted to 71 °C.

For the molecule B9, the “First Scan Tm” value was 68 °C.

As to B10, the “First Scan Tm” value stood at 71 °C.

Still in this series, the particulars now being: cysteine-NEM conjugates, second identical scan.
As for B2, the “Second Scan Tm” value stood at 70 °C.

As to B4, the “Second Scan Tm” value was 68 °C.

Consider B5, for which the “Second Scan Tm” value was found to be 70 °C.

Regarding B3, the “Second Scan Tm” value worked out at 69 °C.

On to B6, for which the “Second Scan Tm” value was 69 °C.

Regarding B7, the “Second Scan Tm” value amounted to 65 °C.

Regarding B8, the “Second Scan Tm” value amounted to 71 °C.

In the case of B9, the “Second Scan Tm” value turned out to be 68 °C.

As for B10, the “Second Scan Tm” value amounted to 71 °C.

System in the next series: not listed separately
The experiment in a line: Analytical size exclusion chromatography (aggregation state, percent monomer). The class given is physicochemical. The settings on record: NEM-conjugated cysteine variants; SEC, Abs280. How it is done:
Size exclusion chromatography was used to determine the aggregation state of the FN3 domains binding EGFR. Aliquots (10 μL) of each purified FN3 domain were injected onto a Superdex 75 5/150 column (GE Healthcare) at a flow rate of 0.3 mL/min in a mobile phase of PBS pH 7.4. Elution from the column was monitored by absorbance at 280 nm.
The percent monomer for each protein was determined by integrating the Abs280 signal and comparing the peak in the monomer region (5.5-6 minutes) to the peaks in the oligomer region (4-5.3 minutes).
(In general: Size exclusion chromatography separates by hydrodynamic size, large species first.)
For B2, the Percent monomer came out at 94%.

In turn, B4 had a Percent monomer of 75%.

With B5, the Percent monomer is 94%.

B3 had a Percent monomer of 100%.

B6: the Percent monomer worked out at 91%.

Molecule B7 showed a Percent monomer of 93%.

B8 returned a Percent monomer of 94%.

Molecule B9 returned a Percent monomer of 80%.

Molecule B10 came in with a Percent monomer of 98%.
